Laboratory results taken from the supplement of paper PMC12764529.
± gives the half width of the 95% confidence interval.

What was measured:
[1] = folding stability dG unfold from chymotrypsin proteolysis; higher = more stable
Description: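 Folding stability of de novo designed mini-proteins (<80 aa, no Cys; designed by TrROS, TrMRF, ProteinMPNN and the joint model) was measured by cDNA display proteolysis with trypsin and chymotrypsin. Each protease was used at 11 concentrations in a threefold dilution series plus a no-protease condition. K50 was inferred by Bayesian fitting of sequencing counts, and dG unfold was derived against a sequence-predicted unfolded-state K50 (Tsuboyama et al. method). Sequences shown include variable-length N-terminal GS-type padding (SAGGSAGG...) inside a display construct carrying a PA tag. Rows were kept only if the AF2 dimer inter-PAE was >15, to exclude likely homo-oligomers.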

[2] = folding stability dG unfold (combined trypsin and chymotrypsin); higher = more stable
Outline: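 Digests were run with trypsin and chymotrypsin at 11 concentrations in threefold dilutions, plus a no-protease condition, on designed mini-proteins in a PA-tagged cDNA display construct. The mini-proteins were under 80 residues, had no cysteine, and were kept only when AlphaFold2 dimer inter-PAE was above 15. After sequencing, Bayesian fitting of the counts gave K50, from which unfolding free energy was derived against a sequence-predicted unfolded-state K50 and a shared folded-state K50, per protease or combined.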

SAGGSAGGSAGGSGSTTPIPATGATLTTETLPDGSPLYTLTDPATGATTTYPPGAPVGLSAGGSAGGSAGGS [r4_158_JUSTAS]
folding stability dG unfold [1]: -0.26 ± 0.07 kcal/mol | folding stability dG unfold [2]: < -1 kcal/mol

SAGGSAGGSAGGSKLKEGEKYKVYFKKTKKELEVETLEQLKALEKAGKKVEIVKIEKVPSAGGSAGGSAGGS [r4_214_TrROS_Hall]
folding stability dG unfold [1]: 0.153 ± 0.21 kcal/mol | folding stability dG unfold [2]: -0.269 ± 0.14 kcal/mol

SAGGSAGGSAGGSKSIYISPDDPNNIRTPDDGEPFKGMPIEEAKKEGIEPRGPNAFRIPSAGGSAGGSAGGS [r4_306_TrROS]
folding stability dG unfold [1]: -0.152 ± 0.36 kcal/mol | folding stability dG unfold [2]: -0.582 ± 0.54 kcal/mol

SAGGSAGGSAGGSKVYVLVPVPNPEAIWEKVKALGPDAKVNSVEFLPGEGYLRVEVDAPSAGGSAGGSAGGS [r10_23_TrMRF]
folding stability dG unfold [1]: -0.318 ± 0.49 kcal/mol | folding stability dG unfold [2]: < -1 kcal/mol

SAGGSAGGSAGGSMKSVPVITTTTTVLPNGTTVTTTTVNNVTSSGTTSSTTTTVTPSLLSAGGSAGGSAGGS [r4_486_JUSTAS]
folding stability dG unfold [1]: -0.571 ± 0.15 kcal/mol | folding stability dG unfold [2]: -0.836 ± 0.22 kcal/mol

SAGGSAGGSAGGSMLTVRSSSTTPLPDGSTVTTYEVNDKPYLVRVDPNGPVVTVKPLSLLSAGGSAGGSAGG [r7_772_JUSTAS]
folding stability dG unfold [1]: -0.367 ± 0.4 kcal/mol | folding stability dG unfold [2]: -0.473 ± 0.29 kcal/mol

SAGGSAGGSAGGSMVIKFTHPDGDPNLPVETLNLKKEELSEEKIKELKEKNPDIKIELKSAGGSAGGSAGGS [r4_422_JUSTAS]
folding stability dG unfold [1]: 0.257 ± 0.33 kcal/mol | folding stability dG unfold [2]: -0.326 ± 0.39 kcal/mol

SAGGSAGGSAGGSPILIPRPDDYVLVVRIEEPRPLPDGDLAPPRIDVRLMPREEVERLLSAGGSAGGSAGGS [r4_238_TrMRF]
folding stability dG unfold [1]: 0.992 ± 0.08 kcal/mol | folding stability dG unfold [2]: 0.378 ± 0.12 kcal/mol

SAGGSAGGSAGGSPVLKTEEKALPNGTVVTTEFLPGGRRREVITPPDGTVKVVEREIERSAGGSAGGSAGGS [r10_1184_JUSTAS]
folding stability dG unfold [1]: 0.356 ± 0.019 kcal/mol | folding stability dG unfold [2]: -0.0994 ± 0.095 kcal/mol

SAGGSAGGSAGGSRYLRIETDRIDDVVEAALKTPGVEEVRVDTPADDRFYVLVKVPDEVSAGGSAGGSAGGS [r4_1_TrMRF]
folding stability dG unfold [1]: -1.13 ± 0.92 kcal/mol | folding stability dG unfold [2]: < -1 kcal/mol

SAGGSAGGSAGGSSARVPFPATGAVLEVRVTPDGRPRVRVFNPATGEVVEFPPGAEVGVSAGGSAGGSAGGS [r4_158_TrMRF]
folding stability dG unfold [1]: 0.762 ± 0.036 kcal/mol | folding stability dG unfold [2]: 0.0259 ± 0.13 kcal/mol

SAGGSAGGSAGGSSMKEVTLYVPPGTLDPAVVEKLREEGVKVTVVPVPLSREPDGPPVASAGGSAGGSAGGS [r4_294_JUSTAS]
folding stability dG unfold [1]: 0.965 ± 0.17 kcal/mol | folding stability dG unfold [2]: 0.0503 ± 0.38 kcal/mol

SAGGSAGGSAGGSSMKYFTRSASPDTTFTVKTPNGGVVNVTPTAAPGTYKYTFTLPGNSSAGGSAGGSAGGS [r4_360_JUSTAS]
folding stability dG unfold [1]: -0.42 ± 0.44 kcal/mol | folding stability dG unfold [2]: < -1 kcal/mol

SAGGSAGGSAGGSSSMVEVEVESEEELEAYLEPLAARGVEVTLTSRDPETGRWLLRVTPPSAGGSAGGSAGG [r7_964_JUSTAS]
folding stability dG unfold [1]: 0.233 ± 0.2 kcal/mol | folding stability dG unfold [2]: -0.0911 ± 0.2 kcal/mol

SAGGSAGGSAGGSVTIPVPENVKVRIYPPNGGRREVTAAAGATITVPAPGGEEVRIEVETSAGGSAGGSAGG [r7_357_TrMRF]
folding stability dG unfold [1]: 0.715 ± 0.021 kcal/mol | folding stability dG unfold [2]: 0.193 ± 0.1 kcal/mol

SAGGSAGGSAGGSWRVRIDLPNGKSRTIPIKPGEEVDLNEIADELSDKYNIKSISIEEPSAGGSAGGSAGGS [r4_116_TrROS]
folding stability dG unfold [1]: 0.42 ± 0.14 kcal/mol | folding stability dG unfold [2]: -0.158 ± 0.29 kcal/mol

SAGGSAGGSAGGTIKKVSDGTIVIPVPNPHQAEKFADTLMEKNNGRDVKIKVFPPEDFGPSAGGSAGGSAGG [r7_645_TrROS]
folding stability dG unfold [1]: -0.264 ± 0.1 kcal/mol | folding stability dG unfold [2]: < -1 kcal/mol

SAGGSAGGSAGGVLYLPDDVKVELVEVTPDGVAKLRVYVYEKDDGDPLVPVPGYDPGAGSAGGSAGGSAGGS [r10_934_TrMRF]
folding stability dG unfold [1]: 0.126 ± 0.36 kcal/mol | folding stability dG unfold [2]: -0.777 ± 0.48 kcal/mol

SAGGSAGGSAGGWIVRIEHGGKERMFQFDSPEEIKDQIRPMFPNGKKVKVEVMPPDDLKSAGGSAGGSAGGS [r10_1167_TrROS]
folding stability dG unfold [1]: -0.0912 ± 0.16 kcal/mol | folding stability dG unfold [2]: -0.483 ± 0.21 kcal/mol

SAGGSAGGSAGIPADAPEAVVRLDLYPDGPDTVVTVEAPFKDIPLDDIPENAVVRLEASPLGSAGGSAGGSA [r18_21_TrMRF]
folding stability dG unfold [1]: 0.0909 ± 0.06 kcal/mol | folding stability dG unfold [2]: -0.539 ± 0.1 kcal/mol

SAGGSAGGSAGKALVFDSPEDLVEKLKENGVELTDIAEVDAPGGPVVLAPIEGIPKPGFGSAGGSAGGSAGG [r11_141_TrMRF]
folding stability dG unfold [1]: 0.633 ± 0.065 kcal/mol | folding stability dG unfold [2]: 0.28 ± 0.16 kcal/mol

SAGGSAGGSAGKKFKITEIHPGDNHHHITVKWKRDGKKRERTVMVPSGPEMAKKADIIIISAGGSAGGSAGG [r11_921_TrROS]
folding stability dG unfold [1]: -0.547 ± 0.48 kcal/mol | folding stability dG unfold [2]: < -1 kcal/mol

SAGGSAGGSAGMEVIINDPEKAKNIPVNSKVKLPNGKEYKVKKVEYNPEIGYVKFIVSPESAGGSAGGSAGG [r11_316_TrMRF]
folding stability dG unfold [1]: -0.489 ± 0.37 kcal/mol | folding stability dG unfold [2]: -0.588 ± 0.34 kcal/mol

SAGGSAGGSAGMKLIEFPPGEEFEEFIKNLPGPIKSVERTKIEPEKVLAKIVLELPPSNLSAGGSAGGSAGG [r11_143_JUSTAS]
folding stability dG unfold [1]: -0.545 ± 0.36 kcal/mol | folding stability dG unfold [2]: < -1 kcal/mol

SAGGSAGGSAGMKTRVTTFTYTEPVLLPDTGELRTVTTTVTFNKPLPEEPLFFTNTPNAGSAGGSAGGSAGG [r17_493_JUSTAS]
folding stability dG unfold [1]: 0.149 ± 0.19 kcal/mol | folding stability dG unfold [2]: -0.158 ± 0.19 kcal/mol

SAGGSAGGSAGMKVKSIKKLSKDPKNGKETFEITIPENGEKVTIETEPGKFEEVKKKLLKSAGGSAGGSAGG [r17_111_JUSTAS]
folding stability dG unfold [1]: 0.359 ± 0.089 kcal/mol | folding stability dG unfold [2]: -0.0508 ± 0.13 kcal/mol

SAGGSAGGSAGMLKTIVIKELTPEAKKALLENPDLPEDAEVPTLVEELTVPVKRTPKGLVSAGGSAGGSAGG [r17_194_JUSTAS]
folding stability dG unfold [1]: -0.0656 ± 0.077 kcal/mol | folding stability dG unfold [2]: -0.398 ± 0.13 kcal/mol

SAGGSAGGSAGMLTTKTITLPHAPDDPAAFRAAVLKGLPPELPVLSVDYDPATGTGTVVASAGGSAGGSAGG [r11_698_JUSTAS]
folding stability dG unfold [1]: 0.0666 ± 0.31 kcal/mol | folding stability dG unfold [2]: < -1 kcal/mol

SAGGSAGGSAGMPLEELAQEALNQFQENGEPVEIDIEVETPNGEYFPFEVEINGDGLKIRSAGGSAGGSAGG [r11_954_TrROS]
folding stability dG unfold [1]: 0.455 ± 0.068 kcal/mol | folding stability dG unfold [2]: -0.0909 ± 0.32 kcal/mol

SAGGSAGGSAGMTLVKTYERFPETGTVVERLSAREPDGPTVPLEVTKVRPVAGEEPVPLLSAGGSAGGSAGG [r11_750_JUSTAS]
folding stability dG unfold [1]: -0.665 ± 0.23 kcal/mol | folding stability dG unfold [2]: < -1 kcal/mol

SAGGSAGGSAGNADQIKEIARKYAPKNGMKPKDVDIEVEERENPNGKKELHIDVEGEYKNSAGGSAGGSAGG [r11_414_TrROS]
folding stability dG unfold [1]: 0.00121 ± 0.46 kcal/mol | folding stability dG unfold [2]: < -1 kcal/mol

SAGGSAGGSAGPMWRIEVENPNGRTPEIWIPPNMDTPEELVDELKKHFPGLKKVKIEPYPSAGGSAGGSAGG [r11_311_TrROS]
folding stability dG unfold [1]: 0.184 ± 0.12 kcal/mol | folding stability dG unfold [2]: -0.391 ± 0.27 kcal/mol

SAGGSAGGSAGPPGEPVRIKLKFPNGNPIEIPGKLDDAEEIAEELQSEGFPFSKVEVEKWSAGGSAGGSAGG [r11_946_TrROS]
folding stability dG unfold [1]: -0.257 ± 0.49 kcal/mol | folding stability dG unfold [2]: -0.603 ± 0.51 kcal/mol

SAGGSAGGSAGPWVPIAPGPNGMWIWAEPDPDKFTIRMFPMSPDGKIPDVQEHEIPPEDFSAGGSAGGSAGG [r11_88_TrROS]
folding stability dG unfold [1]: 0.156 ± 0.22 kcal/mol | folding stability dG unfold [2]: -0.216 ± 0.17 kcal/mol

SAGGSAGGSAGSMTVTSKYTLPGSSDVPVEVEVYSEAPVAVLTKPGAKTVLPLEALKALLSAGGSAGGSAGG [r11_370_JUSTAS]
folding stability dG unfold [1]: 0.346 ± 0.14 kcal/mol | folding stability dG unfold [2]: -0.0987 ± 0.084 kcal/mol

SAGGSAGGSAGSNVVYLGEEVITEVDPYSDKPYTVKVKVYLEPTPEGEKIIEEVLEKELLSAGGSAGGSAGG [r11_113_JUSTAS]
folding stability dG unfold [1]: -0.719 ± 0.29 kcal/mol | folding stability dG unfold [2]: -0.94 ± 0.33 kcal/mol

SAGGSAGGSAGYPPVPPAVVQAVVDELPRLGYTPKAVVVGEGPDLPFVLVVADDKVLLVRGSAGGSAGGSAG [r3_395_TrMRF]
folding stability dG unfold [1]: 0.524 ± 0.096 kcal/mol | folding stability dG unfold [2]: -0.379 ± 0.14 kcal/mol
